Our source for the EC50 and IC50 values is patent US20240124586A1 (WUXI BIOLOGICS IRELAND, published 2024).

Broadly, the EC50 is the concentration giving half of the maximal effect. The low end stands for higher potency in that assay, the high end for lower potency in that assay. The IC50 is the concentration at which inhibition is half-maximal.

The target in assay [1] is T1, human PD-1 on engineered CHO-S cells (W305-CHO-S.hPro1.C6) (human, UniProt Q15116 25-288).
T1 construct: whole, on cells; also called human PD-1 engineered cells; PD-1+ cells
T1 sequence (Q15116 25-288, change not shown): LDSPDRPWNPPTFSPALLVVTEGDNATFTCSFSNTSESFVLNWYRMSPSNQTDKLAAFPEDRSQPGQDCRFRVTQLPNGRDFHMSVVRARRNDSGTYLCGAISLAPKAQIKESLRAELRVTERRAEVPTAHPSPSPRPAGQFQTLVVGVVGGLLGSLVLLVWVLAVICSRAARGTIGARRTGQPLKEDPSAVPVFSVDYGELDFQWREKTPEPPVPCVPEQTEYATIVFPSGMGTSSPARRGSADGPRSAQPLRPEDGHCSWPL
The assay can be described thus: FACS on human PD-1 engineered cells. How it is done:
(§1) Engineered human PD-1 expressing cells W305-CHO-S.hPro1.C6 were seeded at 1×10⁵ cells/well in U-bottom 96-well plates (COSTAR 3799). Antibodies with 3.16-fold titration in 1% BSA DPBS from 200 nM to 0.002 nM were added to the cells. The plates were incubated at 4° C. for 1 hour. After wash, […] 1:125 diluted PE-labeled goat anti-human antibody (Jackson 109-115-098) was added to each well and the plates were incubated at 4° C. for 1 hour. The binding of the antibodies onto the cells was tested by flow cytometry and the mean fluorescence intensity (MFI) was analyzed by FlowJo.

Assay [2] concerns the target T1, human PD-1 on engineered CHO-S cells …. As to the kind of experiment: FACS competition: antibody titrated against human PD-L1 binding to PD-1; falling curve, half-maximal value labelled EC50 on the sheet. How it is done:
In order to test whether the bispecific antibodies could block hPD-L1 binding to hPD-1 protein, a competitive FACS was conducted. […] Plates were incubated at 4° C. for 1 hour. After wash, the binding of W315-hPro1.ECD.mFc to cell expressive human PD-1 was detected by FITC-labeled goat anti-mouse antibody (abcam 98716 1:125). The competition binding of antibodies to the cells was tested by flow cytometry and the mean fluorescence intensity (MFI) was analyzed by FlowJo.

The target of assay [3] is T2, human CTLA-4 on engineered 293F cells (W316-293F.hPro1.FL) (human, UniProt P16410 36-223).
T2 construct: whole, on cells; also called human CTLA-4 engineered cells; CTLA-4+ cells
T2 sequence (P16410 36-223, change not shown): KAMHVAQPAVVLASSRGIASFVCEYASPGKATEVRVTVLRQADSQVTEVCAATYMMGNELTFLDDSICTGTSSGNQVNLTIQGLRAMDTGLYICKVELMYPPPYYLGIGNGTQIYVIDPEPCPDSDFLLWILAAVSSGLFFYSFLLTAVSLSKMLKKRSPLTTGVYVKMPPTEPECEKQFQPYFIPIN
The assay can be described thus: FACS binding to human CTLA-4 engineered cells. Here is the method:
(§2) 3.16-fold titrated Abs with 1% BSA DPBS from 200 nM to 0.002 nM were added to the cells. Plates were incubated at 4° C. for 1 hour. After wash, […] 1:150 diluted PE-labeled goat anti-human antibody (Jackson 109-115-098) was added to each well and the plates were incubated at 4° C. for 1 hour. The binding of the antibodies onto the cells was tested by flow cytometry and the mean fluorescence intensity (MFI) was analyzed by FlowJo.
On the technique in general: A flow cytometer gives signals particle by particle.

In assay [4] the target is T1, human PD-1 on engineered CHO-S cells …. As to the kind of experiment: FACS binding to human PD-1 engineered cells. Here is the method:
as §1

Assay [5] deals with T2, human CTLA-4 on engineered 293F cells …. The assay can be described thus: FACS on human CTLA-4 engineered cells. How it is done: as §2
The target of assay [6] is T1, human PD-1 on engineered CHO-S cells …. The assay can be described thus: FACS on human PD-1 engineered cells. How it is done:
as §1
This is another data set of the same source.

B1: U6T1.G19R.IgG4, bispecific anti-PD-1 x CTLA-4 (bispecific antibody)
heavy: EVQLLESGGGLVQPGGSLRLSCAASGFTFSSHAMSWVRQAPGKGLEWVSTITGGGGSIYYADSVKGRFTISRDNSKNTLYLQMNSLRAEDTAVYYCAKNRAGEGYFDYWGQGTLVTVLEDLKNVFPPEVAVFEPSEAEISHTQKATLVCLATGFYPDHVELSWWVNGKEVHSGVCTDPQPLKEQPALQDSRYALSSRLRVSATFWQNPRNHFRCQVQFYGLSENDEWTQDRAKPVTQIVSAEAWGRYGPPCPPCPAPEFLGGPSVFLFPPKPKDTLMISRTPEVTCVVVDVSQEDPEVQFNWYVDGVEVHNAKTKPREEQFNSTYRVVSVLTVLHQDWLNGKEYKCKVSNKGLPSSIEKTISKAKGQPREPQVYTLPPSQEEMTKNQVSLTCLVKGFYPSDIAVEWESNGQPENNYKTTPPVLDSDGSFFLYSRLTVDKSRWQEGNVFSCSVMHEALHNHYTQKSLSLSLGGGGGSGGGGSGGGGSGGGGSQVQLVESGGGVVQPGRSLRLSCAASGFTFSSYTMHWVRQAPGKGLEWVTFISYDGNNKYYADSVKGRFTISRDNSKNTLYLQMNSLRAEDTAIYYCARTGWLGPFDYWGQGTLVTVSSASTKGPSVFPLAPCSRSTSESTAALGCLVKDYFPEPVTVSWNSGALTSGVHTFPAVLQSSGLYSLSSVVTVPSSSLGTKTYTCNVDHKPSNTKVDKRV
light 1: SYELTQPLSVSVALGQTARITCGGDNIGNKDVHWYQQKPGQAPVLVIYRDSNRPSGIPEGFSGSNSGNTATLTISRAQAGDEADYYCQVWDSIWVFGGGTKLTVLPDIQNPDPAVYQLRDSKSSDKSVCLFTDFDSQTQVSQSKDSDVYITDKCVLDMRSMDFKSNSAVAWSQKSDFACANAFQNSIIPEDTFFPSPESS
light 2: not shown
notes: Symmetric tetravalent format G19R; also called U6T1 in G19R format
Take B1: the EC50 in assay [1] was 1.74 nM. Moreover, the IC50 in assay [2] stood at 1.87 nM.

B2: U6T1.G25.IgG4, bispecific anti-PD-1 x CTLA-4 (bispecific antibody)
heavy: not shown
light 1: B1 light 1
light 2: not shown
notes: Symmetric tetravalent format G25; also called U6T1 in G25 format
Take B2: in assay [1], the 50% effective concentration (EC50) was determined as 1.65 nM. The molecule also returned an IC50 in assay [2] of 1.96 nM.

B3: T4U6.G26R.IgG4, bispecific anti-CTLA-4 x PD-1 (bispecific antibody)
chain: QVQLQESGPGLVKPSETLSLTCSVTYHTITSGYDWTWIRKPPGKGMEWIGYISYSGNTNYNPSLKSRVTISRDTSKNQFFLKLSSVTAADTAVYYCASMMVPHYYVMDAWGQGTLVTVSSASTKGPSVFPLAPCSRSTSESTAALGCLVKDYFPEPVTVSWNSGALTSGVHTFPAVLQSSGLYSLSSVVTVPSSSLGTKTYTCNVDHKPSNTKVDKRVGGGGSGGGGSSYELTQPLSVSVALGQTARITCGGDNIGNKDVHWYQQKPGQAPVLVIYRDSNRPSGIPEGFSGSNSGNTATLTISRAQAGDEADYYCQVWDSIWVFGGGTKLTVLPDIQNPDPAVYQLRDSKSSDKSVCLFTDFDSQTQVSQSKDSDVYITDKCVLDMRSMDFKSNSAVAWSQKSDFACANAFQNSIIPEDTFFPSPESS
heavy: EVQLLESGGGLVQPGGSLRLSCAASGFTFSSHAMSWVRQAPGKGLEWVSTITGGGGSIYYADSVKGRFTISRDNSKNTLYLQMNSLRAEDTAVYYCAKNRAGEGYFDYWGQGTLVTVLEDLKNVFPPEVAVFEPSEAEISHTQKATLVCLATGFYPDHVELSWWVNGKEVHSGVCTDPQPLKEQPALQDSRYALSSRLRVSATFWQNPRNHFRCQVQFYGLSENDEWTQDRAKPVTQIVSAEAWGRYGPPCPPCPAPEFLGGPSVFLFPPKPKDTLMISRTPEVTCVVVDVSQEDPEVQFNWYVDGVEVHNAKTKPREEQFNSTYRVVSVLTVLHQDWLNGKEYKCKVSNKGLPSSIEKTISKAKGQPREPQVYTLPPSQEEMTKNQVSLTCLVKGFYPSDIAVEWESNGQPENNYKTTPPVLDSDGSFFLYSRLTVDKSRWQEGNVFSCSVMHEALHNHYTQKSLSLSLG
light: DIVMTQTPLSLSVTPGQPASISCRSSQSLLNSDGNTYLYWYLQKPGQSPQLLIYLVSKLGSGVPNRFSGSGSGTDFTLKISRVEAEDVGVYYCVQGTHDPWTFGGGTKVEIKRTVAAPSVFIFPPSDEQLKSGTASVVCLLNNFYPREAKVQWKVDNALQSGNSQESVTEQDSKDSTYSLSSTLTLSKADYEKHKVYACEVTHQGLSSPVTKSFNRGEC
notes: Light-heavy crossed chimeric Fab; first chain is T4-HC fused to U6-LC; T4 = WBP3162-1.146.19-z12; also called T4U6 antibody pair in G26R format
On to B3, for which the EC50 came out at 5.91 nM in assay [3] and 4.78 nM in assay [4].

B4: U6T5.G25R.IgG4, bispecific anti-PD-1 x CTLA-4 (bispecific antibody)
heavy: EVQLLESGGGLVQPGGSLRLSCAASGFTFSSHAMSWVRQAPGKGLEWVSTITGGGGSIYYADSVKGRFTISRDNSKNTLYLQMNSLRAEDTAVYYCAKNRAGEGYFDYWGQGTLVTVSSASTKGPSVFPLAPCSRSTSESTAALGCLVKDYFPEPVTVSWNSGALTSGVHTFPAVLQSSGLYSLSSVVTVPSSSLGTKTYTCNVDHKPSNTKVDKRVGGGGSGGGGSQVQLVQSGAEVKKPGSSVKVSCKASGYTFTNYFMNWVRQAPGQGLEWMGRVDPEQGRADYAEKFKKRVTITADKSTSTAYMELSSLRSEDTAVYYCARRAMDNYGFAYWGQGTLVTVLEDLKNVFPPEVAVFEPSEAEISHTQKATLVCLATGFYPDHVELSWWVNGKEVHSGVCTDPQPLKEQPALQDSRYALSSRLRVSATFWQNPRNHFRCQVQFYGLSENDEWTQDRAKPVTQIVSAEAWGRYGPPCPPCPAPEFLGGPSVFLFPPKPKDTLMISRTPEVTCVVVDVSQEDPEVQFNWYVDGVEVHNAKTKPREEQFNSTYRVVSVLTVLHQDWLNGKEYKCKVSNKGLPSSIEKTISKAKGQPREPQVYTLPPSQEEMTKNQVSLTCLVKGFYPSDIAVEWESNGQPENNYKTTPPVLDSDGSFFLYSRLTVDKSRWQEGNVFSCSVMHEALHNHYTQKSLSLSLGK
light 1: SYELTQPLSVSVALGQTARITCGGDNIGNKDVHWYQQKPGQAPVLVIYRDSNRPSGIPEGFSGSNSGNTATLTISRAQAGDEADYYCQVWDSIWVFGGGTKLTVLGQPKAAPSVTLFPPSSEELQANKATLVCLISDFYPGAVTVAWKADSSPVKAGVETTTPSKQSNNKYAASSYLSLTPEQWKSHKSYSCQVTHEGSTVEKTVAPTECS
light 2: EIVLTQSPDFQSVTPKEKVTITCSANSALSYMYWYQQKPDQSPKLWVHGTSNLASGVPSRFSGSGSGTDFTLTINSLEAEDAATYYCHHWSNTQWTFGGGTKVEIKPDIQNPDPAVYQLRDSKSSDKSVCLFTDFDSQTQVSQSKDSDVYITDKCVLDMRSMDFKSNSAVAWSQKSDFACANAFQNSIIPEDTFFPSPESS
notes: also called U6T5.G25R.uIgG4; U6T5 in G25R format
Regarding B4, the EC50 was 8.36 nM in assay [5] and 1.56 nM in assay [6].
